Results published in article PMC3438448.

Key:
[1] = molecular target: microtubules (taxol-stabilized, α/β-tubulin) (UniProt P02554)
axonemal microtubules = experiment: single-molecule microtubule release assay (TIRF); as a6, perfused with 5 mM ATP in the presence of 800 nM Lis1; durations of attachment fitted by a one-phase exponential decay

Chain of microtubules (taxol-stabilized, α/β-tubulin) (chain, as listed by the source, chain 1 of 2): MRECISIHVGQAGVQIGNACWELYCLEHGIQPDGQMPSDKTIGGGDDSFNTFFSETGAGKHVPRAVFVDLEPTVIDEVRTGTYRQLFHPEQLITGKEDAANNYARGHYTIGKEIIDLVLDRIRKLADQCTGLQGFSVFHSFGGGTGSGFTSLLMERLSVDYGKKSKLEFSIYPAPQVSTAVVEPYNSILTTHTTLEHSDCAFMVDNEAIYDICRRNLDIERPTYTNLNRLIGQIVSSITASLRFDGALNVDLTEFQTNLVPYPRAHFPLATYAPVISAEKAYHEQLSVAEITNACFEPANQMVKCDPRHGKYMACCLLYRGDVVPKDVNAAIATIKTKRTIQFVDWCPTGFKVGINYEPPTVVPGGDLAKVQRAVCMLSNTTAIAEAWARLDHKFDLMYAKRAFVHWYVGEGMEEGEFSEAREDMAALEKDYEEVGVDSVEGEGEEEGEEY
Chain of microtubules (taxol-stabilized, α/β-tubulin) (P02554 whole entry, chain 2 of 2, the tested form may be a part): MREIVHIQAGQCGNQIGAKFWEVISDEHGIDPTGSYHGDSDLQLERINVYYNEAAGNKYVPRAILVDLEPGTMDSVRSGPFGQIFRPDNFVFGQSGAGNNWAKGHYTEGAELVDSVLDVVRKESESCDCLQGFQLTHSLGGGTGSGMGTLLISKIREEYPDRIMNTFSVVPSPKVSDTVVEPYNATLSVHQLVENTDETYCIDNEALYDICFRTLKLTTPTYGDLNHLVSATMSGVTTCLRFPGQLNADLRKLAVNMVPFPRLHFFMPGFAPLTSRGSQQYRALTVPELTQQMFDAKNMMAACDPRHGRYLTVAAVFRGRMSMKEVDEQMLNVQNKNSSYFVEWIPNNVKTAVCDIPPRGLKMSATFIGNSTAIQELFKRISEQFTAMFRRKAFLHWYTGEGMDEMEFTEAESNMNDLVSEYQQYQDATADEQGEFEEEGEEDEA

Km(MT) of the microtubule-stimulated ATPase activity, with 140 nM Lis1 [1] [µM] | Km(MT) of the microtubule-stimulated ATPase activity, without Lis1 [1] [µM] | off-rate (decay constant) of microtubule attachments after ATP addition, with 800 nM Lis1 and 5 mM ATP (axonemal microtubules) [s⁻¹] | off-rate (decay constant) of rebinding events, with Lis1 and ATP (axonemal microtubules) [s⁻¹] | Substance
0.2 | 0.09 |  |  | GST-dynein_(331 kDa), P36022 1-4092
 |  | 0.162 | 0.23 | monomeric dynein_(331 kDa) (domain or fragment)
